Reference: the supplement of paper PMC6757056
± gives the standard deviation of the averaged measurements.

B1: library; a variant is named by its letters at N, in order (parent)
chain: GCUGUCACCGGUGUAUUACCCUAGUGGUCGACCGGUCUGAUGAGUCUNNNNNNAGACGAAACAGC

What was measured:
hypoxanthine [1] = variants of: B1; assay: normalized RNA/DNA level with ligand (relative to sTRSVctl = 100) (log10 (% of sTRSVctl)); ligand: hypoxanthine (xanthine aptamer); higher = less ribozyme self-cleavage, higher mRNA level; conditions: ligand concentration (+) RNA-Seq: 5 mM, HEK293T, reporter: mCherry (pCS4076), ligand present: yes
In short: (§1)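 Ribozyme switch library plasmids with mCherry reporters (eGFP in certain ligand experiments) went into HEK293T cells at 4 µg per 6-well well. Where ligand was used, it was applied 1 h before transfection, and total RNA was extracted with EDTA 72 h later for reverse transcription, amplification, barcoding and sequencing. RNA level is the RNA-to-DNA read ratio normalized to a spiked-in non-cleaving sequence or to the leading sequences, then scaled and log-transformed. Scaling was ×100 with log10, the leading set comprised 25 sequences, and the cutoff was ≥100 DNA reads.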

hypoxanthine [2] = variants of: B1; assay: normalized RNA/DNA level without ligand (relative to sTRSVctl = 100) (log10 (% of sTRSVctl)); ligand: hypoxanthine (xanthine aptamer); higher = less ribozyme self-cleavage, higher mRNA level; conditions: HEK293T, reporter: mCherry (pCS4076), ligand present: no
In short: as §1

Variant | normalized RNA/DNA level with ligand (log10) (hypoxanthine [1]) | normalized RNA/DNA level without ligand (log10) (hypoxanthine [2])
CUCGUA | 1.91 ± 0.02 | 1.907 ± 0.015
GCUCCA | 1.936 ± 0.018 | 1.81 ± 0.025
CGGAGA | 1.93 ± 0.044 | 1.617 ± 0.012
UGCCCG | 1.9 ± 0.037 | 1.831 ± 0.014
CCUUCA | 1.97 ± 0.074 | 1.91 ± 0.04
CAAACA | 1.93 ± 0.061 | 1.75 ± 0.039
UGUUCC | 2.03 ± 0.011 | 1.93 ± 0.022
UUGCCC | 1.99 ± 0.025 | 1.997 ± 0.0042
CCAACG | 1.924 ± 0.0039 | 1.859 ± 0.012
CCUGCU | 2.02 ± 0.049 | 1.98 ± 0.08
GUCAAC | 1.95 ± 0.02 | 1.748 ± 0.0031
GUCAAU | 1.925 ± 0.015 | 1.8 ± 0.054
UUAGUC | 1.98 ± 0.0064 | 1.976 ± 0.015
UCCUGA | 1.974 ± 0.017 | 1.77 ± 0.069
CUCGCC | 1.99 ± 0.026 | 1.883 ± 0.0029
UUGUUC | 2.012 ± 0.012 | 2.01 ± 0.032
UAUAGA | 1.892 ± 0.0092 | 1.63 ± 0.019
UUUGCC | 1.92 ± 0.034 | 1.9514 ± 0.00098
CCUGAU | 1.909 ± 0.004 | 1.821 ± 0.013
AGCUAA | 1.912 ± 0.0024 | 1.845 ± 0.013
CGUAUU | 1.96 ± 0.026 | 1.732 ± 0.015
UCACGA | 1.923 ± 0.011 | 1.8 ± 0.043
GCUUCU | 1.996 ± 0.0049 | 1.94 ± 0.058
CUUCGU | 2.028 ± 0.012 | 1.9 ± 0.045
CAGACC | 2.04 ± 0.037 | 1.96 ± 0.045
GUACUG | 1.883 ± 0.0029 | 1.53 ± 0.056
UGUUUU | 1.97 ± 0.069 | 1.888 ± 0.011

Variant | normalized RNA/DNA level with ligand (log10) (hypoxanthine [1]) | normalized RNA/DNA level without ligand (log10) (hypoxanthine [2])
GUAGUC | 1.976 ± 0.012 | 1.81 ± 0.05
CUCUGG | 1.937 ± 0.0091 | 1.75 ± 0.084
CGGGAC | 1.96 ± 0.078 | 1.726 ± 0.0062
CGUCCA | 1.957 ± 0.0057 | 1.924 ± 0.0032
GCCCCC | 1.95 ± 0.033 | 1.83 ± 0.078
GAUUUU | 1.947 ± 0.0067 | 1.908 ± 0.0016
UACGUU | 1.956 ± 0.0074 | 1.86 ± 0.042
GAGGUC | 2 ± 0.043 | 1.843 ± 0.016
ACAGAC | 1.92 ± 0.078 | 1.838 ± 0.0042
UCAUGC | 1.95 ± 0.0044 | 1.882 ± 0.014
GCAGCG | 1.97 ± 0.028 | 1.62 ± 0.042
GGCCUA | 1.98 ± 0.063 | 1.98 ± 0.026
GCCAGG | 1.872 ± 0.0046 | 1.43 ± 0.1
UUAUCC | 1.957 ± 0.016 | 1.929 ± 0.013
GAGCCU | 2.01 ± 0.028 | 1.94 ± 0.024
CUCCAC | 1.92 ± 0.02 | 1.92 ± 0.036
CGCCUU | 1.94 ± 0.033 | 1.92 ± 0.068
AGAAUC | 1.94 ± 0.086 | 1.91 ± 0.048
UAGUCG | 1.924 ± 0.013 | 1.737 ± 0.0043
GAGUCC | 2.015 ± 0.017 | 1.853 ± 0.013
UUCCAG | 1.9 ± 0.051 | 1.68 ± 0.064
GGGUGU | 1.9307 ± 0.0015 | 1.81 ± 0.062
ACUGUA | 1.93 ± 0.062 | 1.78 ± 0.036
AUUAAC | 1.881 ± 0.0094 | 1.8077 ± 0.0004
UAAACG | 1.9 ± 0.087 | 1.71 ± 0.036
GUUUCA | 1.98 ± 0.024 | 1.9949 ± 0.0014
CUCUUA | 1.895 ± 0.0051 | 1.825 ± 0.012

Variant | normalized RNA/DNA level with ligand (log10) (hypoxanthine [1]) | normalized RNA/DNA level without ligand (log10) (hypoxanthine [2])
UUACUA | 1.93 ± 0.039 | 1.887 ± 0.011
UAUCGU | 1.9 ± 0.052 | 1.7 ± 0.091
CUUACG | 1.96 ± 0.025 | 1.87 ± 0.086
UCGUCC | 1.98 ± 0.026 | 1.95 ± 0.0024
ACGCCC | 1.94 ± 0.026 | 1.875 ± 0.0043
CUAGCU | 1.987 ± 0.0096 | 1.93 ± 0.042
AUAGGU | 1.908 ± 0.016 | 1.587 ± 0.015
AAUCGU | 1.94 ± 0.023 | 1.69 ± 0.022
UGCUUC | 1.988 ± 0.0048 | 1.96 ± 0.045
UGCUUG | 1.923 ± 0.019 | 1.85 ± 0.091
CAUAGU | 2 ± 0.039 | 1.88 ± 0.019
UAGGAC | 1.934 ± 0.0064 | 1.83 ± 0.037
CAUGCC | 1.92 ± 0.1 | 1.84 ± 0.028
CGAUUG | 1.92 ± 0.045 | 1.922 ± 0.0055
UUCCCC | 1.93 ± 0.043 | 1.8846 ± 0.0013
GAUCCC | 2.05 ± 0.042 | 1.889 ± 0.0035
AAUAUU | 1.93 ± 0.088 | 1.88 ± 0.031
AGGUUA | 1.93 ± 0.035 | 1.68 ± 0.031
ACCCCA | 1.96 ± 0.031 | 1.86 ± 0.062
UCGACG | 1.94 ± 0.021 | 1.704 ± 0.007
UGCUAA | 1.92 ± 0.066 | 1.832 ± 0.0053
GGCCCU | 2.037 ± 0.02 | 2 ± 0.034
ACUUGU | 1.91 ± 0.086 | 1.77 ± 0.11
GUCUGA | 1.954 ± 0.0094 | 1.79 ± 0.03
CUAUAA | 1.9 ± 0.037 | 1.8 ± 0.0052
AAGCUU | 1.94 ± 0.062 | 1.86 ± 0.023
